Test results: patent publication US9512212 (ARIZONA BOARD OF REGENTS A BODY CORPORATE OF THE STATE OF …, dated 2016)

What was measured:
β-amyloid (Aβ) [1] = biological target: T1, β-amyloid (Aβ) (UniProt P05067 672-711, limits assumed); experiment: not stated (standard affinity maturation)
T1 construct: Aβ is a fragment of it; also called beta amyloid; Ab40

β-amyloid (Aβ) [2] = biological target: T1, β-amyloid (Aβ); experiment: not stated (clone from standard affinity maturation of H1)

T1 sequence (P05067 672-711 limits assumed): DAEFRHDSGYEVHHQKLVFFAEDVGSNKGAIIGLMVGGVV

B1: H1v2 anti-Ab40 scFv (scFv)
scFv: MAEVQLVESGGGVVRPGGSLRLSCAASGFTFDDYGMSWVRQAPGKGLEWVSGINWNGGSTGYADSVKGRFTISRDNAKNSLYLQMNSLRAEDTAVYYCARRRYALDYWGQGTLVTVSRGGGGSGGGGSGGGGSSELTQDPAVSVALGQTVRITCQGDSLRSYYASWYQQKPGQAPVLVIYGKNNRPSGIPDRFSGSSSGNTASLTITGAQAEDEADYYCNSRDSSGNHVVFGGGTKLTVLG
notes: also called H1v2 clone
- fold increase in affinity over the parent H1 scFv (β-amyloid (Aβ) [1]): ~5 fold
- Kd (β-amyloid (Aβ) [2]): 247 nM
